Data from US20060030527A1.

Molecular target: Fc receptor on THP-1 cells
Assay: cell-based or functional assay

TNF secretion by THP-1 cells on wells coated with 10 ug/well heat aggregated protein: > 40 ng/well
Substance: human IgG1 (heat aggregated, plate coated) (antibody)
